# Experimental data: the RNAGym collection of RNA variant scans (doi:10.1021/acssynbio.7b00057)
# B1: Pistol ribozyme (parent)
# chain: GGGUCGUUGUUCCAUAAUCGCGUGGAUAUGGCACGCAAGUUUCUACCGGGCACCGUAAAUGUCCGACUGGAGCCGUUCGGGCGGCUAUAAACAGACCUCAGGCCCGAAGCGUGGCGGCACCUGCCGCCGGUGGUAAAAAAGAUCGGAAGAGCACACGUCU
# Variants of: B1
# Experiment: aptazyme ON/OFF ratio, guanine; higher = stronger switching; co-transcriptional cleavage with and without guanine
row,Variant,aptazyme ON/OFF ratio
1,U7C U10C U11A C12G C13U,1.15
2,U7C U10C U11A C12G C13A,1.15
3,U7C U10C U11A C12G C13G,1.15
4,U7C U8G U10G U11G C13G,1.28
5,U7C U8G U10G U11G C13U,1.39
6,U7C U8G U10G U11G C13A,1.21
7,U7C U10C U11A C12U,1.42
8,U7C U10C U11A C12A,1.53
9,U7C U10C U11A C12G,1.38
10,U7C U10G U11G,1.23
11,U7C U10G U11A,1.1
12,U7C U10G U11C,1.1
13,U7C U10A U11C C12U,1.03
14,U7C U10A U11C C12G,1.25
15,U7C U10A U11C C12A,1.12
16,U7C U10A U11C C12A C13A,1.1
17,U7C U10A U11C C12A C13U,1.1
18,U7C U10A U11C C12A C13G,1.12
19,U7C U10C U11C,1.74
20,U7C U10C U11G,1.21
21,U7C U10C U11A,2.11
22,U7C U8G U11A C12G C13A,1.11
23,U7C U8G U11A C12G C13G,1.11
24,U7C U8G U11A C12G C13U,1.09

row,Variant,aptazyme ON/OFF ratio
1,U7C U11A,1.38
2,U7C U10A U11G C12A C13G,0.975
3,U7C U10A U11G C12A C13A,1.17
4,U7C U10A U11G C12A C13U,1.17
5,U7C U10G U11C C13U,1.02
6,U7C U10G U11C C13A,1.08
7,U7C U10G U11C C13G,1.06
8,U7C U10A U11A C12A,1.17
9,U7C U10A U11A C12U,1.2
10,U7C U10A U11A C12G,1.28
11,U7C U10C U11G C12U C13A,1.16
12,U7C U10C U11G C12U C13U,1.16
13,U7C U10C U11G C12U C13G,1.41
14,U7C U8G U11C C13U,1.36
15,U7C U8G U11C C13A,1.3
16,U7C U8G U11C C13G,1.12
17,U7C U8G U11A C12A C13G,1.07
18,U7C U8G U11A C12A C13U,1.13
19,U7C U8G U11A C12A C13A,1.09
20,U7C U8G U11C C12G C13G,1.17
21,U7C U8G U11C C12G C13U,1.17
22,U7C U8G U11C C12G C13A,1.15
23,U7C U10A U11A C12A C13G,1.11
24,U7C U10A U11A C12A C13A,1.17

row,Variant,aptazyme ON/OFF ratio
1,U7C U10A U11A C12A C13U,1.21
2,U7C U8G U10G U11G C12G C13U,1.26
3,U7C U8G U10G U11G C12G C13A,1.17
4,U7C U8G U10G U11G C12G C13G,1.15
5,U7C U8G U11A C12U C13U,1.12
6,U7C U8G U11A C12U C13G,1.09
7,U7C U8G U11A C12U C13A,1.09
8,U7C U10A U11C C12G C13U,1.22
9,U7C U10A U11C C12G C13A,1.2
10,U7C U10A U11C C12G C13G,1.31
11,U7C U10G U11A C12G C13A,1.09
12,U7C U10G U11A C12G C13G,1.15
13,U7C U10G U11A C12G C13U,1.22
14,U7C U10A C13U,1.04
15,U7C U10A C13A,1.06
16,U7C U10A C13G,1.05
17,U7C U10A,1.12
18,U7C U10C,1.92
19,U7C U10G,1.65
20,U7C U8G U11G C12U C13G,1.07
21,U7C U8G U11G C12U C13U,1.17
22,U7C U8G U11G C12U C13A,1.11
23,U7C U10C U11G C12G C13G,1.16
24,U7C U10C U11G C12G C13U,1.1

row,Variant,aptazyme ON/OFF ratio
1,U7C U10C U11G C12G C13A,1.19
2,U7C U10G C13A,1.2
3,U7C U10G C13G,1.16
4,U7C U10G C13U,1.39
5,U7C U8G U10G U11C C12U C13G,1.21
6,U7C U8G U10G U11C C12U C13U,1.37
7,U7C U8G U10G U11C C12U C13A,1.33
8,U7C U10G U11G C12U,1.21
9,U7C U10G U11G C12A,1.2
10,U7C U10G U11G C12G,1.22
11,U7C U8G U10G U11A C12A,1.21
12,U7C U8G U10G U11A C12G,1.14
13,U7C U8G U10G U11A C12U,1.37
14,U7C U8G U11A,1.88
15,U7C U8G U11G,1.2
16,U7C U8G U11C,3.13
17,U7C U8G U10C U11G C12A C13A,1.11
18,U7C U8G U10C U11G C12A C13U,1.32
19,U7C U8G U10C U11G C12A C13G,1.1
20,U7C U10C C12U C13G,1.28
21,U7C U10C C12U C13U,1.36
22,U7C U10C C12U C13A,1.3
23,U7C U8G U10C U11C C12U C13G,1.23
24,U7C U8G U10C U11C C12U C13U,1.1

row,Variant,aptazyme ON/OFF ratio
1,U7C U8G U10C U11C C12U C13A,1.04
2,U7C U10A U11A C12U C13A,1.28
3,U7C U10A U11A C12U C13G,1.16
4,U7C U10A U11A C12U C13U,1.27
5,U7C U8G U10G U11G C12G,1.21
6,U7C U8G U10G U11G C12U,1.21
7,U7C U8G U10G U11G C12A,1.28
8,U7C U10G U11G C12A C13G,1.16
9,U7C U10G U11G C12A C13U,1.26
10,U7C U10G U11G C12A C13A,1.13
11,U7C U10C U11C C12A,1.29
12,U7C U10C U11C C12G,1.28
13,U7C U10C U11C C12U,1.31
14,U7C U8G U10G U11C C12G C13U,1.26
15,U7C U8G U10G U11C C12G C13G,1.18
16,U7C U8G U10G U11C C12G C13A,1.16
17,U7C U10C C12A,1.26
18,U7C U10C C12U,3.58
19,U7C U10C C12G,1.28
20,U7C U10G C12U,1.32
21,U7C U10G C12G,1.18
22,U7C U10G C12A,1.11
23,U7C U10G U11A C12U C13G,1.1
24,U7C U10G U11A C12U C13A,1.19

row,Variant,aptazyme ON/OFF ratio
1,U7C U10G U11A C12U C13U,1.22
2,U7C U8G U11G C12A C13A,1.1
3,U7C U8G U11G C12A C13G,1.08
4,U7C U8G U11G C12A C13U,1.18
5,U7C U8G U10G U11G C12A C13G,1.19
6,U7C U8G U10G U11G C12A C13A,1.11
7,U7C U8G U10G U11G C12A C13U,1.26
8,U7C U8G U10G U11C C13G,1.2
9,U7C U8G U10G U11C C13U,1.14
10,U7C U8G U10G U11C C13A,1.24
11,U7C U10C U11C C12A C13A,1.25
12,U7C U10C U11C C12A C13G,1.32
13,U7C U10C U11C C12A C13U,1.2
14,U7C U10C U11C C13U,1.08
15,U7C U10C U11C C13A,1.07
16,U7C U10C U11C C13G,1.14
17,U7C U8G U10C U11G C12G C13G,1.09
18,U7C U8G U10C U11G C12G C13U,1.11
19,U7C U8G U10C U11G C12G C13A,1.09
20,U7C U10G U11A C12U,1.15
21,U7C U10G U11A C12G,1.15
22,U7C U10G U11A C12A,1.13
23,U7C U10G U11C C12U C13G,1.16
24,U7C U10G U11C C12U C13A,1.28

row,Variant,aptazyme ON/OFF ratio
1,U7C U10G U11C C12U C13U,1.27
2,U7C U8G U10C U11G C12U,1.97
3,U7C U8G U10C U11G C12G,1.32
4,U7C U8G U10C U11G C12A,2.9
5,U7C U8G U10C U11C C12U,2.76
6,U7C U10C U11G C12A C13U,1.33
7,U7C U10C U11G C12A C13A,1.11
8,U7C U10C U11G C12A C13G,1.19
9,U7C U8G U10G U11A C12G C13A,1.1
10,U7C U8G U10G U11A C12G C13G,1.21
11,U7C U8G U10G U11A C12G C13U,1.14
12,U7C U8G U10G U11A C12A C13U,1.2
13,U7C U8G U10G U11A C12A C13G,1.13
14,U7C U8G U10G U11A C12A C13A,1.11
15,U7C U8G U10C U11G C12U C13G,1.17
16,U7C U8G U10C U11G C12U C13U,1.25
17,U7C U8G U10C U11G C12U C13A,1.24
18,U7C U8G U11A C13U,1.16
19,U7C U8G U11A C13G,1.07
20,U7C U8G U11A C13A,1.07
21,U7C U8G U11C C12A C13A,1.28
22,U7C U8G U11C C12A C13U,1.34
23,U7C U8G U11C C12A C13G,1.15
